Earlier results on two molecules are cited in patent US20220223299A1, “METHODS AND APPARATUSES FOR MODELING, SIMULATING, AND TREATING HEREDITARY ANGIOEDEMA” (Takeda Pharmaceutical Company Limited, priority 2019, published 2022).

As usually defined, the half-life is how long it takes for the measured level to halve.

In one data set the target is T1, FXIIa (Homo sapiens, UniProt P00748).
T1 sequence (P00748 20-372 partner limits assumed): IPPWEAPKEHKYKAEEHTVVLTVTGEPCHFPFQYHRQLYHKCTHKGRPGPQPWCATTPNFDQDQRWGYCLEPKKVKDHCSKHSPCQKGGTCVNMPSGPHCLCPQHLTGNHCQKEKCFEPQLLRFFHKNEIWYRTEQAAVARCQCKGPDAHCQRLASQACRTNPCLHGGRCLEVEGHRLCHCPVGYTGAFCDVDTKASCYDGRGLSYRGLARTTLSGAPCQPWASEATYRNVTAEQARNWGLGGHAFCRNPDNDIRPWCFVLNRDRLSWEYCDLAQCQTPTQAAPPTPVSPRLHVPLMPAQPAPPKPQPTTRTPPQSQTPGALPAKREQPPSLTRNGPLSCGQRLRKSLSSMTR
T1 sequence (P00748 373-615 limits assumed): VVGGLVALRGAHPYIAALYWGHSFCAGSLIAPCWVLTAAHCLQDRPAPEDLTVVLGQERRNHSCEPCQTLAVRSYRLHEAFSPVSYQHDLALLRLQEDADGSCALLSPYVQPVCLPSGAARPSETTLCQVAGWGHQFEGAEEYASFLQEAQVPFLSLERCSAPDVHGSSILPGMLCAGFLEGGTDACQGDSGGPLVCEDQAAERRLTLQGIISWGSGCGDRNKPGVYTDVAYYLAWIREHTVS
The note with it: FXIIa in plasma and FXIIa_gC1qR.

Another data set has as its target T2, KAL (kallikrein) (Homo sapiens, UniProt P03952).
T2 construct: The preKAL is cleaved by FXIIa resulting in KAL, the two-chain enzyme kallikrein
The note with it: KAL in plasma, KAL_HMWK in plasma and KAL_HMWK_gC1qR.

The conditions of data set [1]: in vivo.
For a further data set, the target named is T3, KAL (plasma kallikrein) (Homo sapiens, UniProt P03952).
T3 construct: The preKAL is cleaved by FXIIa resulting in KAL, the two-chain enzyme kallikrein
T3 sequence (P03952 20-390 partner limits assumed): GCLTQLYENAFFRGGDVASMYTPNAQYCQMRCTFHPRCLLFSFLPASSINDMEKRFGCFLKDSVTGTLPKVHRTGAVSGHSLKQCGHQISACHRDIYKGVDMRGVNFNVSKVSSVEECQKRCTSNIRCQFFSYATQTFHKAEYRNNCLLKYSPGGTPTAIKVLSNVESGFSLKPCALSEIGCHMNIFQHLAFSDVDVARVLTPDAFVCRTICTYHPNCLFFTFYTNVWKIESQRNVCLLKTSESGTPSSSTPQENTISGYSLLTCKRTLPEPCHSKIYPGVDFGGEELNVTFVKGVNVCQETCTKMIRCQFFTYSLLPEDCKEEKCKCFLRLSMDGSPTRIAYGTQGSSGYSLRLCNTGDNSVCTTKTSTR
T3 sequence (P03952 391-638 limits assumed): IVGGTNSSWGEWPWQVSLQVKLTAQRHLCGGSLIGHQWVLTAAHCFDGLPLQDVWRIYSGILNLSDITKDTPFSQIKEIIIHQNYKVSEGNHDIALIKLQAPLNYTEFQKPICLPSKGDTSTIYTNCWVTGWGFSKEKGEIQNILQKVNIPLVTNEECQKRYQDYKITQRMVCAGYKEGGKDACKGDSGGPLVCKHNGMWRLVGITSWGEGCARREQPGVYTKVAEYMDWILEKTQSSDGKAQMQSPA
The note with it: KAL in plasma, KAL_HMWK in plasma and KAL_HMWK_gC1qR.

T2 sequence (P03952 20-390 partner limits assumed): as the sequence (P03952 20-390 partner limits assumed) above
T2 sequence (P03952 391-638 limits assumed): as the sequence (P03952 391-638 limits assumed) above

In the case of “C1Inh: C1 inhibitor protein; binds to and inhibits both Factor XIIa and kallikrein”, in the data set with FXIIa, the koff_C1Inh_FXIIa was 229.104 h⁻¹ and the kon_C1Inh_FXIIa is 0.1332 nM⁻¹ h⁻¹. For the same molecule, the Kd in the data set with FXIIa (read-out: Kd_C1Inh_FXIIa) is 1720 nM. For the setting “vascular space”, the “kdeg_C1Inh, degradation rate for C1Inh” value was 0.0165 h⁻¹. Further, the “kdeg_Bound_C1Inh, degradation rate for bound C1Inh” value (vascular space, bound C1Inh) is 13.863 h⁻¹. In the data set with KAL (kallikrein), the koff_C1Inh_KAL was 9.18 h⁻¹ and the kon_C1Inh_KAL was 0.0612 nM⁻¹ h⁻¹. Further, the Kd with KAL (kallikrein) (read-out: Kd_C1Inh_KAL) was 150 nM.

B1: Lanadelumab: fully human IgG1 recombinant monoclonal antibody inhibitor of activated plasma kallikrein (antibody, chains of the INN, looked up, V domains shown)
VH: EVQLLESGGGLVQPGGSLRLSCAASGFTFSHYIMMWVRQAPGKGLEWVSGIYSSGGITVYADSVKGRFTISRDNSKNTLYLQMNSLRAEDTAVYYCAYRRIGVPRRDEFDIWGQGTMVTVSS
VL: DIQMTQSPSTLSASVGDRVTITCRASQSISSWLAWYQQKPGKAPKLLIYKASTLESGVPSRFSGSGSGTEFTLTISSLQPDDFATYYCQQYNTYWTFGQGTKVEIK
Consider B1, for which the half-life in data set [1] is given as 14 days. Besides, in the data set with KAL (plasma kallikrein), the koff_KAL_Lanadelumab was 1.452 h⁻¹ and the kon_KAL_Lanadelumab is 12.096 nM⁻¹ h⁻¹. Moreover, the Kd in the data set with KAL (plasma kallikrein) (read-out: Kd_KAL_Lanadelumab) is 0.12 nM. Also, the kdeg Lanadelumab KAL HMWK gC1qR, degradation rate for Lanadelumab bound with KAL HMWK gC1qR receptor complex (proximal space) was 0.347 h⁻¹.
